Assays:
Type in all cases: physicochemical
[1] = Copper sulphate addition to sodium caseinate solution, precipitation; settings: 2% protein
Description: The sodium caseinate solution (2% protein) precipitated upon addition of 1.5 mM copper as copper sulphate. Again using the concept of complex II, we could add 4 mM without noticeable precipitation at pH 6.8.

[2] = Zinc sulphate addition to sodium caseinate solution, precipitation of proteins; settings: 2% protein solution, pH 6.8
Description: We have compared the effect of zinc sulphate addition on the precipitation of proteins in sodium caseinate using our technology.
Upon addition of zinc sulphate to sodium caseinate solution (2% protein), not more than 5 mM of zinc could be added without gross precipitation of proteins at pH 6.8.
However, as exemplified with the concept of complex II, we could add 18 mM of zinc to the sodium caseinate (2% protein solution) without any precipitation of proteins.

[3] = Effect of phosphorus addition on soluble protein, soluble iron, turbidity and appearance of sodium caseinate solution on iron addition; settings: without the phosphorus, FIGS. 6 and 7
Description: FIGS. 3 to 5 illustrate the effect of adding phosphorus to the complex.
FIG. 5 illustrates the advantages of the invention, wherein an increase in turbidity indicates a reduction in stability due to the formation of small particulates/precipitates.
FIGS. 6 and 7 visually illustrate how addition of phosphorus improves the solubility and stability of the complex. Even when the iron is loaded up to 25 mM, the composition remains in solution. Without the phosphorus, the protein and/or iron precipitates even at lower levels of iron (5-10 mM).

sodium caseinate
Copper addition at which the solution precipitated [1]: 1.5 mM | Zinc that could be added without precipitation of proteins [2]: not more than 5 mM | Iron level at which protein and/or iron precipitates [3]: 5 to 10 mM
